{
  "source": "patent US20080160617A1",
  "about": "“AGENT FOR INDUCING EMBRYONIC STEM CELL TO ECTODERMAL CELL, METHOD FOR OBTAINING THE SAME, AND USE OF THE SAME” (KYOWA HAKKO KOGYO CO., LTD., priority 2001, published 2008)",
  "molecules": {"B1": {"name": "BMP4: bone morphogenetic protein 4, dorsal factor of neural tube (manufactured by R & D) (protein, UniProt P12644 293-408, looked up)", "Bone morphogenetic protein 4": "SPKHHSQRARKKNKNCRRHSLYVDFSDVGWNDWIVAPPGYQAFYCHGDCPFPLADHLNSTNHAIVQTLVNSVNSSIPKACCVPTELSAISMLYLDEYDKVVLKNYQEMVVEGCGCR"}, "B2": {"name": "IL-11: interleukin 11 (protein, UniProt P20809 22-199, looked up)", "Interleukin-11": "PGPPPGPPRVSPDPRAELDSTVLLTRSLLADTRQLAAQLRDKFPADGDHNLDSLPTLAMSAGALGALQLPGVLTRLRADLLSYLRHVQWLRRAGGSSLKTLEPELGTLQARLDRLLRRLQLLMSRLALPQPPPDPPAPPLAPPSSAWGGIRAAHAILGGLHLTLDWAVRGLLLLKTRL"}, "B3": {"name": "GDNF: glial cell-line derived neurotrophic factor (protein, UniProt P39905 78-211, looked up)", "Glial cell line-derived …": "SPDKQMAVLPRRERNRQAAAANPENSRGKGRRGQRGKNRGCVLTAIHLNVTDLGLGYETKEELIFRYCSGSCDAAETTYDKILKNLSRNRRLVSDKVGQACCRPIAFDDDLSFLDDNLVYHILRKHSAKRCGCI"}, "B4": {"name": "SFRP 1: mouse-derived secreted frizzled-related protein 1 (SEQ ID NO:7), about 38 kDa band identified in solution having SDIA activity (protein, listed as Mus musculus)", "chain": "MGVGRSARGRGGAASGVLLALAAALLAAGSASEYDYVSFQSDIGSYQSGRFYTKPPQCVDIPVDLRLCHNVGYKKMVLPNLLEHETMAEVKQQASSWVPLLNKNCHMGTQVFLCSLFAPVCLDRPIYPCRWLCEAVRDSCEPVMQFFGFYWPEMLKCDKFPEGDVCIAMTPPNTTEASKPQGTTVCPPCDNELKSEAIIEHLCASEFALRMKIKEVKKENGDKKIVPKKKKPLKLGPIKKKELKALVLFLKNGADCPCHQLDNLSHNFLIMGRKVKSQYLLTAIHKWDKKNKEFKNFMKRMKNHECPTFQSVFK"}, "B5": {"name": "FGF-8: fibroblast growth factor 8 (protein, UniProt P55075 23-233, looked up)", "Fibroblast growth factor 8": "QEGPGRGPALGRELASLFRAGREPQGVSQQHVREQSLVTDQLSRRLIRTYQLYSRTSGKHVQVLANKRINAMAEDGDPFAKLIVETDTFGSRVRVRGAETGLYICMNKKGKLIAKSNGKGKDCVFTEIVLENNYTALQNAKYEGWYMAFTRKGRPRKGSKTRQHQREVHFMKRLPRGHHTTEQSLRFEFLNYPPFTRSLRGSQRTWAPEPR"}},
  "key": {"ES cell EB5 [1]": {"tested_on": "ES cell EB5", "test": "Mesodermal marker staining of colonies from ES cell/PA6 coculture in BMP4-added serum-free medium", "assay_type": "cell-based, mouse", "details": "0.5 nmol/l BMP4-added serum-free medium, coculture with PA6 cell, 8 days", "text": "A medium was produced by adding 0.5 nmol/l of BMP4 (manufactured by R & D) to the serum-free medium described in Reference Example 1. Using the thus produced BMP4-added serum-free medium instead of the serum-free medium used in Reference Example 1, the ES cell EB5 and PA6 cell were cocultured according to the method described in Reference Example 1. That is, the PA6 cell proliferated to almost confluent on a 3 cm tissue culture dish was used as a feeder cell, the ES cell was inoculated onto the feeder cell at a density of 200 cells/dish, medium exchange was carried out with a fresh medium on the 4th, 6th and 7th days, and the cells were cultured at 37° C. for 8 days in a stream of 5% carbon dioxide in a CO2 incubator.\nEight days after coculturing, the cells were fixed according to the method described in Reference Example 1, and colonies formed as a result of coculturing of the ES cell and PA6 cell were immunologically stained with the anti-NCAM antibody, the anti-E cadherin antibody, an MF20 antibody which recognizes mesodermal cells (manufactured by Developmental Studies Hybridoma Bank) and an antibody against PDGF receptor α or Flk1 whose expression are observed in mesodermal cells (S. I. Nishikawa et al., Development, 125, 1747 (1998))."}, "ES cell EB5 [2]": {"tested_on": "ES cell EB5", "test": "Effects of shh and BMP4 on dorso-ventral neural markers in ES cell EB5/PA6 coculture", "assay_type": "cell-based, mouse", "details": "shh 300 nmol/l or BMP4 0.5 nmol/l added at medium exchange on 4th, 6th, 8th days; 10 days coculture with PA6", "description": "According to the method described in Reference Example 1, the ES cell EB5 was cultured for 10 days in the serum-free medium without BMP4 by using the PA6 cell as a feeder cell. That is, the PA6 cell proliferated to almost confluent on a 3 cm tissue culture dish was used as a feeder cell, the ES cell was inoculated onto the feeder cell at a density of 200 cells/dish, the medium was exchanged with a fresh serum-free medium on the 4th, 6th and 8th days, and the cells were cultured at 37° C. for 10 days in a 5% CO2 incubator.\nEffects of shh were evaluated according to the similar method described above, by using a serum-free medium to which 300 nmol/l of shh (manufactured by R & D) had been added at the time of the medium exchange on the 4th, 6th and 8th days.\nEffects of BMP4 were evaluated according to the similar method described above, by using a serum-free medium to which 0.5 nmol/l of BMP4 (manufactured by R & D) had been added at the time of the medium exchange on the 4th, 6th and 8th days.\nTen days after coculturing, the cells cultured by respective culturing methods were fixed according to the method described in Reference Example 1, and the colonies formed as a result of coculturing of the ES cell with PA6 cell were immunologically stained with the anti-NCAM antibody, an antibody against HNF-3β which is a marker of the basal plate existing on the most ventral side of the central nervous system primordium (neural tube) (purchased from Developmental Studies Hybridoma Bank), an antibody against Nkx2.2 as a marker existing secondary to the HNF-3β from the ventral side (purchased from Developmental Studies Hybridoma Bank), an antibody against Pax-7 as a marker of the neural tube dorsal side (purchased from Developmental Studies Hybridoma Bank), an antibody against AP-2 as a marker of the neural crest cell (purchased from Developmental Studies Hybridoma Bank), an antibody against islet 1 as a marker of motor neuron (purchased from Developmental Studies Hybridoma Bank) and an antibody against VAchT which is a marker of cholinergic neuron (manufactured by Chemicon)."}, "ES cell EB5 [3]": {"tested_on": "ES cell EB5", "test": "Coculture of ES cell EB5 with PA6 cell in BMP4-added serum-free medium, immunological staining", "assay_type": "cell-based, mouse", "description": "A medium was prepared by adding 0.5 nmol/l BMP4 (manufactured by R & D) to the serum-free medium described in Reference Example 1. The ES cell EB5 was cocultured with PA6 cell according to the method described in Reference Example 1, using the thus produced BMP4-added serum-free medium instead of the serum-free medium used in Reference Example 1. Eight days after culturing, immunological cell staining was carried out by using the anti-NCAM antibody, the anti-nestin antibody or an antibody against a non-neural ectoderm cell marker E cadherin (manufactured by Takara Shuzo). As a control, coculturing was carried out in the serum-free medium without BMP4.\nAlso, 8 days after culturing in the BMP4-added serum-free medium, the medium was changed to Glasgow MEM medium containing 10% fetal bovine serum (manufactured by GIBCO BRL), followed by culturing for 3 days. The thus cultured cells were fixed for 30 minutes by adding 4% paraformaldehyde and immunologically stained with an antibody against a skin epidermis cell marker keratin 14 (manufactured by Biomedia), and the results were compared with those in which culturing was continued for additional 3 days in the bovine serum-free medium, with the results shown in FIGS. 9G, H and I."}, "embryonic stem cell": {"tested_on": "embryonic stem cell", "details": "cited from earlier work"}, "ES cell EB5 [4]": {"tested_on": "ES cell EB5", "test": "Nerve differentiation of ES cell EB5 by solution recovered from PA6 cell with polyanion-containing Hanks' balanced salt solution (SDIA activity)", "assay_type": "cell-based, mouse", "details": "SFRP 1 removed with anti-SFRP 1 polyclonal antibody on protein G Sepharose, 4° C., 15 hours; compared with untreated solution", "description": "ES cell EB5 (H. Niwa et al., Nature Genet., 24, 372 (2000); obtained from Dr. Hitoshi Niwa at the Molecular Control Medical Science Course, Medical School, Osaka University) was used as the embryonic stem cell, and an MC3T3-G2/PA6 cell (H. Kodama et al., J. Cell Physiol., 112) 89 (1982), hereinafter referred to as “PA6 cell”) as the stromal cell, and the ES cell EB5 was cultured in accordance with the method described in Reference Example 1 and used in the test.\nCells of PA6 cultured to almost confluent state on a dish of 10 cm in diameter were washed twice with 10 ml of PBS(−) (manufactured by Invitrogen) and once with 10 ml of Hanks' balanced salt solution (manufactured by Invitrogen), 3 ml of Hanks' balanced salt solution containing from 0.001% (w/v) to 0.1% (w/v) of heparin (manufactured by Nacalai Tesque) was added thereto, the mixture was allowed to stand at 37° C. for 30 minutes, and the solution was recovered. The solution obtained was added to the PA6 on the 10 cm, dish washed in the same manner described above, the mixture was allowed to stand at 37° C. for 30 minutes in the same manner, and then the solution was recovered. This process was carried out on PA6 on the other 10 cm dish, and effect of the recovered solution ES cell was examined. […]"}, "[5]": {"details": "0.5 nmol/l BMP4-added serum-free medium, coculture with PA6 cell, 8 days"}},
  "data": [
    {"molecule": "B1", "values": [
      {"measurement": "colonies stained with mesodermal cell markers PDGF receptor α, Flk1 and MF20, of the total colonies", "setting": "ES cell EB5 [1]", "value": "≤ 5", "unit": "%"},
      {"measurement": "ratio of ES cell-derived colonies stained with Anti-AP-2 antibody", "setting": "ES cell EB5 [2]", "value": 24, "unit": "%"},
      {"measurement": "ratio of ES cell-derived colonies stained with Anti-HNF-3β antibody", "setting": "ES cell EB5 [2]", "value": 9, "unit": "%"},
      {"measurement": "ratio of ES cell-derived colonies stained with Anti-NCAM antibody", "setting": "ES cell EB5 [2]", "value": 90, "unit": "%"},
      {"measurement": "ratio of ES cell-derived colonies stained with Anti-Nkx2.2 antibody", "setting": "ES cell EB5 [2]", "value": 19, "unit": "%"},
      {"measurement": "ratio of ES cell-derived colonies stained with Anti-Pax-7 antibody", "setting": "ES cell EB5 [2]", "value": 72, "unit": "%"},
      {"measurement": "ratio of ES cell-derived colonies stained with Anti-VAchT antibody", "setting": "ES cell EB5 [2]", "value": 42, "unit": "%"},
      {"measurement": "ratio of ES cell-derived colonies stained with Anti-islet 1 antibody", "setting": "ES cell EB5 [2]", "value": 36, "unit": "%"},
      {"measurement": "anti-NCAM antibody staining of ES cell-derived colonies", "setting": "ES cell EB5 [3]; [5]", "value": "anti-NCAM antibody-negative"},
      {"measurement": "anti-nestin antibody staining of ES cell-derived colonies", "setting": "ES cell EB5 [3]; [5]", "value": "anti-nestin antibody-negative"},
      {"measurement": "frequency of E cadherin-positive colonies", "setting": "ES cell EB5 [3]; [5]", "value": 98, "unit": "%"},
      {"measurement": "frequency of keratin 14-positive colonies", "setting": "ES cell EB5 [3]; 8 days in BMP4-added serum-free medium, then 3 days in Glasgow MEM medium containing 10% fetal bovine serum", "value": 47, "unit": "%"},
      {"measurement": "frequency of keratin 14-positive colonies", "setting": "ES cell EB5 [3]; BMP4-added serum-free medium throughout (8 days plus additional 3 days serum-free)", "value": 34, "unit": "%"}
    ]},
    {"molecule": "B2", "values": [
      {"measurement": "SDIA-like activity to induce differentiation of embryonic stem cell into ectoderm system cells", "setting": "embryonic stem cell", "value": "no SDIA-like activity"}
    ]},
    {"molecule": "B3", "values": [
      {"measurement": "SDIA-like activity to induce differentiation of embryonic stem cell into ectoderm system cells", "setting": "embryonic stem cell", "value": "no SDIA-like activity"}
    ]},
    {"molecule": "B4", "values": [
      {"measurement": "SDIA activity of solution after removal of SFRP 1", "setting": "ES cell EB5 [4]", "value": "decrease of SDIA activity was observed"}
    ]},
    {"molecule": "B5", "values": [
      {"measurement": "SDIA-like activity to induce differentiation of embryonic stem cell into ectoderm system cells", "setting": "embryonic stem cell", "value": "no SDIA-like activity"}
    ]}
  ]
}
